In this assay the target is GFP1-10 tagged with MCP, with nuclear localization sequences. The assay is described as follows: P3 editing (protein-protein proximity joins crRNA-MS2 and BoxB-petracrRNA; prime editing read by amplicon sequencing); HEK293T cells; 12 designs of crRNA-MS2/BoxB-petracrRNA that vary the upper 4 bp of the Cas9-binding region of the repeat:anti-repeat duplex; tagged split-GFP against standard untagged GFP as background; normalized to the eCTT control.

In turn, “GFP11 tagged with LambdaN, with nuclear localization sequences (peptide)” yielded a normalized editing efficiency (GAUA:UAUC design) of 3.8%.
